Measurements taken from paper PMC10658506.
Substitutions are numbered along the chain they refer to. Numbers in names are those of the source.

T1: human gp130-Fc, P40189
T1 chain: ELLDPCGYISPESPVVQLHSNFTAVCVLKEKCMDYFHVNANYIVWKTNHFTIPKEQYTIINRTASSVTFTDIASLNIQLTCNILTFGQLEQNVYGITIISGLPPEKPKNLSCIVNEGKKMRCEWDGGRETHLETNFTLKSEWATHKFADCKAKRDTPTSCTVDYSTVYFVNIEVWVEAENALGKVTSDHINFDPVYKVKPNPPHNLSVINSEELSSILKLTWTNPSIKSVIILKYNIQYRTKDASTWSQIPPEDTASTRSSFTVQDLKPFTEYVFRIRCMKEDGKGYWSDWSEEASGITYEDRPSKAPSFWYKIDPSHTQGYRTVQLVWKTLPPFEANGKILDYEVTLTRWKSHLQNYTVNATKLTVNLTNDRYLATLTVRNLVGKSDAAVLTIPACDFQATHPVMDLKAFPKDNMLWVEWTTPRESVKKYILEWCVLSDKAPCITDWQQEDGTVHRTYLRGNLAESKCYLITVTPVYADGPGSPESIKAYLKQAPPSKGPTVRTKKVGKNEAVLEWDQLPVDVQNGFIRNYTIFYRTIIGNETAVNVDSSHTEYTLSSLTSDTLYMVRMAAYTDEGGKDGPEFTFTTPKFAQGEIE

T2: yeast-displayed IL-11 L57P (human)
T2 sequence (P20809 22-199 with L57P, looked up): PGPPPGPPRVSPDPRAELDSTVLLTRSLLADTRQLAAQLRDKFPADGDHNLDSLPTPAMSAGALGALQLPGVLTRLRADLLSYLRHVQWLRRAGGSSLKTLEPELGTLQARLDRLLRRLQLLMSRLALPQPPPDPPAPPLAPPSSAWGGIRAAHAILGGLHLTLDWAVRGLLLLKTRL

B1: yeast-displayed wild-type human IL-11, P20809 D19G; T21I; L57P; G62R (protein)
chain: T2 sequence (P20809 22-199 with L57P, looked up) with D19G, T21I, G62R
B2: soluble human IL-11 receptor extracellular domain, his-tagged (receptor)
chain: SPCPQAWGPPGVQYGQPGRSVKLCCPGVTAGDPVSWFRDGEPKLLQGPDSGLGHELVLAQADSTDEGTYICQTLDGALGGTVTLQLGYPPARPVVSCQAADYENFSCTWSPSQISGLPTRYLTSYRKKTVLGADSQRRSPSTGPWPCPQDPLGAARCVVHGAEFWSQYRINVTEVNPLGASTRLLDVSLQSILRPDPPQGLRVESVPGYPRRLRASWTYPASWPCQPHFLLKFRLQYRPAQHPAWSTVEPAGLEEVITDAVAGLPHAVRVSARDFLDAGTWSTWSPEAWGTPSTGTIPKEIPAWGQLHTQPEVEPQVDSPAPPRPSLQPHPRLLDHRDSVEQVAVLA
B3: soluble mouse IL-11 receptor (receptor)
chain: SPCPQAWGPPGVQYGQPGRPVMLCCPGVSAGTPVSWFRDGDSRLLQGPDSGLGHRLVLAQVDSPDEGTYVCQTLDGVSGGMVTLKLGFPPARPEVSCQAVDYENFSCTWSPGQVSGLPTRYLTSYRKKTLPGAESQRESPSTGPWPCPQDPLEASRCVVHGAEFWSEYRINVTEVNPLGASTCLLDVRLQSILRPDPPQGLRVESVPGYPRRLHASWTYPASWRRQPHFLLKFRLQYRPAQHPAWSTVEPIGLEEVITDAVAGLPHAVRVSARDFLDAGTWSAWSPEAWGTPSTGPLQDEIPDWSQGHGQQLEAVVAQEDSPAPARPSLQPDPRPLDHRDPLEQVAVLA

Legend:
[1] = biological target: T1, human gp130-Fc, P40189; experiment: flow cytometry on yeast-displayed IL-11; conditions: chain shown with the change, 100 nM IL-11R added, read off a plot
[2] = biological target: yeast-displayed IL-11 GIPR (human); experiment: flow cytometry on cells; yeast-displayed IL-11 variants incubated with varying concentrations of soluble IL-11R or mIL-11R overnight at room temperature, washed with BPBS; receptor detected with anti-his AF647, display with anti-c-myc; apparent Kd from the fraction bound of the expressing …
[3] = biological target: T2, yeast-displayed IL-11 L57P (human); experiment: as above
[4] = biological target: yeast-displayed IL-11 GIPR S60T (human); experiment: as above

Row | Binder | response (Normalized Fluorescence) ([1]; 10 nM gp130-Fc) | response (Normalized Fluorescence) ([1]; 100 nM gp130-Fc) | response (Normalized Fluorescence) ([1]; 1000 nM gp130-Fc) | Kd [2] [nM] | fold improvement of apparent Kd over WT IL-11 [2] [fold] | Kd [3] [nM] | fold improvement in IL-11R binding over WT IL-11 [3] [fold] | Kd [4] [nM]
1 | B1 | 28000 | 35000 | 40000 |  |  |  |  | 
2 | B2 |  |  |  | 0.12 | 70 | 0.71 | 10 | 
3 | B3 |  |  |  | 1.5 |  |  |  | 0.29
